Data on 1 substance can be found in patent US20230058774A1.

For experiment [1], the target named is FasDNR (Fas dominant negative receptor, deletion of amino acids 230-314 of human Fas) (human) (UniProt P25445). As to the kind of experiment: cell-based or functional assay.
Experiment [2] concerns the target human Fas, wild type (human) (UniProt P25445). As to the kind of experiment: cell-based or functional assay.

In the case of “soluble FasL oligomerized through a leucine zipper motif (FasL-LZ) (from UniProt P48023 103-281) (ligand)”, the apoptosis (active Caspase3/7 and Annexin V) of primary human CD8+ T cells exposed to 100 ng/ml FasL-LZ in experiment [1] is less than 20%; in experiment [2] it was 70%.
